The record followed here is patent US6380375B1, “DNA encoding monkey gonadotropin releasing hormone receptor” (Merck & Co., Inc., priority 1999, dated 2002).

Experiment [1] concerns the target monkey gonadotropin-releasing hormone (GnRH) receptor (monkey). The experiment in a line: whole cell radioligand binding, eight of the 96 neoR CHO-K1 clones screened.
Experiment [2] has the same target. Briefly: whole cell radioligand binding, best CHO-K1 clone expressing the monkey GnRH receptor.
For experiment [3], the system named is monkey GnRH receptor. Briefly: Aequorin bioluminescence assay in CHO-K1 cells stably co-expressing the monkey GnRH receptor and apo-aequorin. The note with it: CHO-K1 cells co-expressing monkey GnRHR and apo-aequorin; P1/(P1+P2) response. The experiment is classed as cell-based. How it is done: To construct this dual stable cell line, the 600 bp aeq gene was cut out by EcoRI and KpnI from pcDNA3.aeq, and inserted into pIRES1hyg (Clontech Laboratories, Palo Alto, Calif.) at BamHI that was blunt-ended. The positive clones were identified by colony-hybridization using the probe of aeq. The new construct that contained aeq and hyg was transfected into monkey GnRHR-CHO-K1 cells (as Example 5). The transfectants were selected by 600 μg/ml hygromycin (Boehringer Mannheim, Indianapolis, Ind.) for 10 days, and 480 hyg^r colonies were transferred into 96-well plates. These clones were assayed for aequorin by the aequorin bioluminescence assay as described in Example 7, and many positive clones were identified. […] This clone was single cell isolated, and used for the functional evaluation of the monkey GnRH receptor by the aequorin assay.
The aequorin assay has been widely used to monitor the changes in the cytosolic Ca^2+ concentration caused by the activation of the G-protein coupled receptors. […] The plate was read immediately in a Bioluminomitor (Lumino Skan RS) for 30 seconds. […] The remaining unreacted aequorin was determined by lysing the cells with 0.1% Triton X-100 (Sigma, St. Louis, Mo.). […] The percentage of aequorin which responded to GnRH challenge was calculated as P1/(P1+P2). […]

In experiment [4] the test system is monkey GnRH receptor. Briefly: Phosphoinositide (PI) turnover assay in CHO-K1 cells stably expressing the monkey GnRH receptor. Type of experiment: cell-based. The note with it: monkey GnRHR-CHO-K1 cells, 37° C., 1 hour, FIG. 7; read-out: EC50 of GnRH-stimulated PI turnover. How it is done: The ORF of the monkey GnRH receptor was subcloned into a polycistronic expression vector pIRES1.neo (Clontech Laboratories, Palo Alto, Calif.) to generate cells that stably express these receptors. In this vector, the cloned receptor cDNA and the neo gene were transcribed into one mRNA. The plasmid DNA of pIRES1.neo-mkGnRHR was transfected into CHO-K1 cells using the method of lipofectin. Transfection was carried out for overnight and the cells were split 48 hours later. G418 at 1 mg/ml was added 24 hours after splitting, and its concentration was increased to 2 mg/ml in 2-3 days. After 10 days selection by G418, colonies were picked and transferred to 24-well plates. The monkey GnRH receptor expression clones were screened by the whole cell binding assay using a radiolabeled peptide agonist of GnRH, 5-(^125Iodo-Tyr)-Buserelin (Woods Assay, Portland, Oreg.). […] After single cell isolation, the membrane from this clone was prepared, and the membrane binding assay was performed using ^125I-buserelin. […] The GnRH-stimulated PI turnover was also performed.
CHO-K1 cells stably expressing the monkey GnRH receptor are functionally coupled to phospholipase C. […] The eluate was then counted in a scintillation counter.

Experiment [5] concerns the target monkey gonadotropin-releasing hormone (GnRH) receptor (monkey). The experiment in a line: cell-based or functional assay.

On to 5-(125Iodo-Tyr)-Buserelin (peptide), for which the specific binding, fold above the non-specific binding in experiment [1] was 3 fold. In experiment [2], this molecule registered a fold above the background of 5 fold and a specific binding activity of 645 cpm.

B1: Gonadotropin-releasing hormone (peptide)
peptide: QHWSYGLRPGGKRDAENLIDSFQEIVKEVGQLAETQRFECTTHQPRSPLRDLKGALESLIEEETGQKKI
notes: neuronal decapeptide hormone released from hypothalamus; obtained from a vendor and used as agonist
The term EC50 denotes the concentration giving half of the maximal effect. B1 showed an EC50 with monkey GnRH receptor [3] of 2 nM. For the same molecule, the EC50 with monkey GnRH receptor [4] came to 0.43 nM. Also, in experiment [5], the GnRH-stimulated PI turnover, EC50 is 0.43 nM; the aequorin bioluminescence assay, AUC for P1 amounted to 1290; the aequorin bioluminescence assay, EC50 of GnRH stood at 2 nM; the aequorin bioluminescence assay, P1/(P1+P2) ratio came out at 71%.
